For this experiment, the target named is Burkholderia pseudomallei K96243 sphingosine-1-phosphate lyase S1PL2021 (shorter ORF of BPSS2021, st (Burkholderia pseudomallei K96243)). Nature of the experiment: SEC. Background: Size exclusion chromatography separates by hydrodynamic size, large species first.

What is called stoichiometry N is a count of units in the complex or per binding partner.

In turn, “Burkholderia pseudomallei K96243 sphingosine-1-phosphate lyase S1PL2021 (shorter ORF of BPSS2021, st (enzyme)” came in with a stoichiometry N of 2.

These data come from publication PMC5234717 (Journal of Lipid Research, 2016).
